Laboratory results published in article PMC3360202.

Columns and labels:
[1] = target: T1, P1MYB (N6His-ZmP1MYB) (Zea mays, UniProt P27898 9-116); experiment: EMSA
[2] = target: T1, P1MYB (N6His-ZmP1MYB); experiment: competition
[3] = target: T1, P1MYB (N6His-ZmP1MYB); experiment: EMSA; remark: listed apart in the source

T1 sequence (P27898 9-116): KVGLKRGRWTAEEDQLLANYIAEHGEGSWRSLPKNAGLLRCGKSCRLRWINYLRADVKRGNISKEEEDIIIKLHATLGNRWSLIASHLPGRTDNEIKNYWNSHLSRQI

B1: APB1 (dsDNA)
DNA 1: GATCCGGGTCAGTGTACCTACCAACCTTAAACAC
DNA 2: GATCGTGTTTAAGGTTGGTAGGTACACTGACCCG
binding result [1]: binds

B2: comp2 (dsDNA)
DNA 1: CCAAGTCAAAATCCAACCATTATCTCTTGA
DNA 2: TCAAGAGATAATGGTTGGATTTTGACTTGG
binding result [2]: binds

B3: comp3 (dsDNA)
DNA 1: TAGATGTGATTCGTTAGGTGTGTTTTTATAA
DNA 2: TTATAAAAACACACCTAACGAATCACATCTA
binding result [2]: binds

B4: comp1 (dsDNA)
DNA 1: CTATTACTCGTTAGTTGGATTTTAGTTT
DNA 2: AAACTAAAATCCAACTAACGAGTAATAG
binding result [2]: binds

B5: FLSbind (dsDNA)
DNA 1: GAGTTTCTGGTAGGTGCGTCGTACGGCCAG
DNA 2: CTGGCCGTACGACGCACCTACCAGAAACTC
binding result [3]: binds
